“And” between values parts separate entries of the source, which are not always exact repeats. Equal entries are not always repeated.
Settings: whole UniProt chain shown
[1] = Streptomyces tendae, pH 2, Thermal, DSC, Sodium phosphate 10 mM, Na2SO4 10 mM, reversible: yes
[2] = Streptomyces tendae, pH 5, 25 °C, Thermal, DSC, Sodium phosphate 10 mM, Na2SO4 10 mM, reversible: yes
[3] = Streptomyces tendae, pH 7, Thermal, DSC, Sodium phosphate 10 mM, Na2SO4 10 mM, reversible: yes
[4] = Thermus thermophilus, pH 7, 25 °C, GdnHCl, CD, Potassium phosphate 20 mM, potassium chloride 50 mM
[5] = Thermus thermophilus (strain ATCC 27634 / DSM 579 / HB8), pH 7.5, 25 °C, GdnHCl, Fluorescence, tris-HCl 20 mM, reversible: yes

B1: Alpha-amylase inhibitor HOE-467A wild type, P01092 (protein)
chain: MRVRALRLAALVGAGAALALSPLAAGPASADTTVSEPAPSCVTLYQSWRYSQADNGCAQTVTVKVVYEDDTEGLCYAVAPGQITTVGDGYIGSHGHARYLARCL
[1]
  Tm: 68.3 °C
  heat capacity change of unfolding: 0.69 kcal/mol/K
  unfolding enthalpy (calorimetric): 56.4 kcal/mol
[2]
  heat capacity change of unfolding: 0.69 kcal/mol/K
  unfolding enthalpy (calorimetric): 26.3 kcal/mol
  unfolding free energy: 6.7 kcal/mol
[3]
  Tm: 81.6 °C
  heat capacity change of unfolding: 0.69 kcal/mol/K
  unfolding enthalpy (calorimetric): 65.6 kcal/mol

B2: Triosephosphate isomerase, glycosomal wild type, P04789 (protein)
chain: MSKPQPIAAANWKCNGSQQSLSELIDLFNSTSINHDVQCVVASTFVHLAMTKERLSHPKFVIAAQNAIAKSGAFTGEVSLPILKDFGVNWIVLGHSERRAYYGETNEIVADKVAAAVASGFMVIACIGETLQERESGRTAVVVLTQIAAIAKKLKKADWAKVVIAYEPVWAIGTGKVATPQQAQEAHALIRSWVSSKIGADVAGELRILYGGSVNGKNARTLYQQRDVNGFLVGGASLKPEFVDIIKATQ
Trypanosoma brucei brucei, pH 7, Thermal, CD, 3-(N-morpholino)propanesulfonic acid/dithiothreitol 20 mM/0.02 mM, EDTA 0.02 mM
  Tm: 52.2 °C
Trypanosoma brucei brucei, pH 7.4, Thermal, CD, MOPS 20 mM, EDTA 1 mM, reversible: no
  Tm: 51.4 °C
Trypanosoma brucei brucei, pH 7.5, Thermal, CD, TEA 0.9 mM, NaCl 1.2 mM
  Tm: 44 °C and 48 °C

B3: Inorganic pyrophosphatase wild type, P50308 (protein)
chain: MKLSPGKNAPDVVNVLVEIPQGSNIKYEYDDEEGVIKVDRVLYTSMNYPFNYGFIPGTLEEDGDPLDVLVITNYQLYPGSVIEVRPIGILYMKDEEGEDAKIVAVPKDKTDPSFSNIKDINDLPQATKNKIVHFFEHYKELEPGKYVKISGWGSATEAKNRIQLAIKRVSGGQ
Sulfolobus acidocaldarius (strain ATCC 33909 / DSM 639 / JCM 8929 / NBRC 15157 / NCIMB 11770), pH 7, Thermal, CD, HEPES 20 mM, MgCl2 5 mM
  Tm: 98 °C
Sulfolobus acidocaldarius (strain ATCC 33909 / DSM 639 / JCM 8929 / NBRC 15157 / NCIMB 11770), pH 7, Thermal, CD, HEPES 20 mM
  Tm: 89 °C

B4: Streptogrisin-B wild type, P00777 (protein)
chain: MRIKRTSNRSNAARRVRTTAVLAGLAAVAALAVPTANAETPRTFSANQLTAASDAVLGADIAGTAWNIDPQSKRLVVTVDSTVSKAEINQIKKSAGANADALRIERTPGKFTKLISGGDAIYSSTGRCSLGFNVRSGSTYYFLTAGHCTDGATTWWANSARTTVLGTTSGSSFPNNDYGIVRYTNTTIPKDGTVGGQDITSAANATVGMAVTRRGSTTGTHSGSVTALNATVNYGGGDVVYGMIRTNVCAEPGDSGGPLYSGTRAIGLTSGGSGNCSSGGTTFFQPVTEALSAYGVSVY
Streptomyces griseus, pH 5, 0 °C, GdnHCl, Fluorescence, potassium acetate 10 mM
  unfolding free energy: 0.71 kcal/mol

B5: Small ribosomal subunit protein bS6 wild type, P23370 (protein)
chain: MRRYEVNIVLNPNLDQSQLALEKEIIQRALENYGARVEKVEELGLRRLAYPIAKDPQGYFLWYQVEMPEDRVNDLARELRIRDNVRRVMVVKSQEPFLANA
[4]
  denaturant m value: 2.5 kcal/mol/M
  unfolding free energy: 8.5 kcal/mol

B6: Phosphoglycerate kinase wild type, P09403 (protein)
chain: MRTLLDLDPKGKRVLVRVDYNVPVQDGKVQDETRILESLPTLRHLLAGGASLVLLSHLGRPKGPDPKYSLAPVGEALRAHLPEARFAPFPPGSEEARREAEALRPGEVLLLENVRFEPGEEKNDPELSARYARLGEAFVLDAFGSAHRAHASVVGVARLLPAYAGFLMEKEVRALSRLLKDPERPYAVVLGGAKVSDKIGVIESLLPRIDRLLIGGAMAFTFLKALGGEVGRSLVEEDRLDLAKDLLGRAEALGVRVYLPEDVVAAERIEAGVETRVFPARAIPVPYMGLDIGPKTREAFARALEGARTVFWNGPMGVFEVPPFDEGTLAVGQAIAALEGAFTVVGGGDSVAAVNRLGLKERFGHVSTGGGASLEFLEKGTLPGLEVLEG
[5]
  denaturant m value: 2.7 kcal/mol/M
  denaturant midpoint (higher = more stable): 2.34 M
  unfolding free energy: 6.32 kcal/mol

B7: Pilin wild type, Q9A1S2 (protein)
chain: MKLRHLLLTGAALTSFAATTVHGETVVNGAKLTVTKNLDLVNSNALIPNTDFTFKIEPDTTVNEDGNKFKGVALNTPMTKVTYTNSDKGGSNTKTAEFDFSEVTFEKPGVYYYKVTEEKIDKVPGVSYDTTSYTVQVHVLWNEEQQKPVATYIVGYKEGSKVPIQFKNSLDSTTLTVKKKVSGTGGDRSKDFNFGLTLKANQYYKASEKVMIEKTTKGGQAPVQTEASIDQLYHFTLKDGESIKVTNLPVGVDYVVTEDDYKSEKYTTNVEVSPQDGAVKNIAGNSTEQETSTDKDMTITFTNKKDFEVPTGVAMTVAPYIALGIVAVGGALYFVKKKNA
Streptococcus pyogenes serotype M1, pH 8, Thermal, CD, potassium phosphate buffer 10 mM, transition: 2
  Tm: 85.1 °C
